Source: US20250332265A1, “PSMA TARGETED CONJUGATE COMPOUNDS AND USES THEREOF” (priority 2021, published 2025)

How the values were obtained:
[1] = tested on: PSMA-negative PC3flu cells; test: In vitro uptake studies, Example 2, PC3flu; format: cell-based, human; settings: 50 nM
Method: Enzymatic cleavage study of PSMA-1-MMAE-IR700 was performed as previously described. PSMA-1-MMAE-IR700 was incubated with activated human liver cathespin (Anthens Research and Technology, Anthens, GA) at 37° C. At different incubation time, 40 μL of the solution was placed into tubes loaded with 1 μL of 1 mM E64 protease inhibitor. The mixture was vortexed and then stored at −80° C. for future HPLC analysis. Studies were performed in triplicate. In vitro cellular uptake studies cells were plated on coverslips at about 60-70% confluency. Twenty-four hours later, cells were incubated with 50 nM of PSMA-1-MMAE-IR700. After incubation for various times (15 min, 30 min, 1 h and 4 h), cells were washed twice with cold RPMI 1640, fixed with 4% paraformaldehyde and counterstained with 4′,6-diamidino-2-phenylindole (DAPI). Images were taken using a Leica DM4000B fluorescence microscope (Leica Biosystems, Buffalo Gove, IL) at 40×. Blocking experiments were performed by co-incubation of cells with 50 nM of PSMA-1-MMAE-IR700 and 100× of PSMA-1 ligand. Studies were performed in triplicate.

[2] = tested on: PC3pip and PC3flu tumors; test: In vivo fluorescence imaging studies, heterotopic tumors; set-up: species or system mice
Method: Animal experiments were approved by the animal care and use committee at Case Western Reserve University (IACUC #150033). Six to eight-week-old male Balb/c athymic nude mice (Jackson Laboratory, Bar Harbor, ME) were implanted subcutaneously with 1×10^6 of PC3pip (right flank) and PC3flu (left flank) cells in 100 μl of matrigel. Animals were ready to use when tumor diameter reached 10 mm, about two weeks. Animals received 100 nmol/kg of PSMA-1-MMAE-IR700 through tail vein injection and were imaged at different time points by Maestro In vivo Image System (Perkin Elmer, Waltham, MI) using the yellow filter set (excitation 575-605 nm, emission 645 nm longpass). During imaging, mice were anesthetized by isoflurane. At 48 h post injection, mice were sacrificed and tissues such as heart, lung, liver, kidneys, stomach, tumors were harvested for ex vivo imaging. Multispectral images were unmixed into their component spectra and average fluorescence signals were quantified by creating regions of interest. Experiments were performed in 5 mice.

[3] = tested on: PC3pip tumors; test: Immunofluorescent detection of apoptosis (caspase-3, H&E); format: in vivo, mice; settings: single dose, four days after the treatment
Source text: Animals bearing PC3pip tumors were divided into 7 groups: (1) mice receiving PBS; (2) mice receiving 100 nmol/kg PSMA-1-MMAE-IR700 with PDT; (3) mice receiving equal doses of PSMA-1-MMAE-IR700 to group 2, but not receiving PDT; (4) Mice receiving equal doses of PSMA-1-IR700 to group 2 with PDT treatment; (5) Mice receiving equal doses of PSMA-1-IR700 to group 2 without PDT; (6) mice receiving equal dose of PSMA-1-IR700 to group 2+free MMAE with PDT (MMAE normalized to that delivered by PSMA-1-MMAE-IR700); and (7) mice receiving equal dose of PSMA-1-IR700 to group 2+free MMAE without PDT. Animals were treated with one single dose and were sacrificed at 4-day post treatment. Tumors were snap-frozen in OCT, cut into 10 μm thick sections and fixed on slides. Induction of apoptosis by the treatment was determined by rabbit polyclonal anti-Caspase-3 antibody (Abcam, Cambridge, UK). A goat anti-rabbit polyclonal antibody labeled by Alexa Fluor-594 was used as secondary antibody (Abcam, Cambridge, UK). The presence of apoptosis was determined by fluorescence images under Leica DM4000B fluorescence microscope at 10×. H&E staining of tumor tissues was performed in adjacent sections to check the histology of the tumors. Experiments were repeated in 5 mice.

[4] = tested on: PSMA-negative PC3flu cells; test: In vitro cytotoxicity studies (CellTiter 96) with or without 690 nm light, PC3flu; format: cell-based, human
Method: PC3pip and PC3flu cells were plated at 3,000 cells/well in 96-well plates. Twenty-four hours later, drugs (PSMA-1-MMAE-IR700 or PSMA-1-IR700) of different concentrations were added. After incubation at 37° C. in the dark for 24 h, cell viability was determined by CellTiter 96© aqueous one solution cell proliferation assay using absorbance at 490 nm (Promega Biotech, Madison, […]). The concentration required to inhibit 50% of cell growth (IC50) was determined by GraphPad Prism 3.0. To test the cytotoxicity of PSMA-1-MMAE-TR700 with light irradiation, drugs at a final concentration of 5 nM were added to cells and incubated in the dark for 24 h. Cells were then washed 3 times with RMPI 1640 and then irradiated with 690 nm light (L690-66-60, Marubeni America Co, New York, NY). Cells were incubated in the dark for another 24 h. Cell viability was then determined by CellTiter 96© aqueous one solution cell proliferation assay (Promega Biotech, Madison, […]). The coefficient drug interaction (CDI) was calculated as follows: CDI=AB/(A×B), where AB is the ratio of the absorbance of combination treatment groups (PSMA-1-MMAE-IR700 with light irradiation) to the absorbance of control groups; A or B is the absorbance of single treatment group (PSMA-1-MMAE-IR700 without light or PSMA-1-IR700 with light irradiation) to the absorbance of control groups. […]

[5] = Stability in PBS, Example 2; format: physicochemical; settings: incubated at 37° C.
Source text: To synthesize PSMA-1-MMAE-IR700 (FIG. 6A), we used a self-immolative cathespsin cleavable Vc linker to conjugate MMAE to PSMA-1-Cys-C6-Lys. IR700 was conjugated to the PSMA-1 ligand through reaction of the Lys amine (—NH2) with NHS ester as no IR700 release is required for light activation. […] Degradation of PSMA-1-MMAE-IR700 led to release of free MMAE.

[6] = 4 h post injection, 100 nmol/kg
[7] = 48 h post injection, 100 nmol/kg

CC[C@H](C)[C@@H]([C@@H](CC(=O)N1CCC[C@H]1[C@H](OC)[C@@H](C)C(=O)N[C@H](C)[C@@H](O)c1ccccc1)OC)N(C)C(=O)[C@@H](NC(=O)[C@H](C(C)C)N(C)C(=O)OCc1ccc(NC(=O)[C@H](CCCNC(N)=O)NC(=O)[C@@H](NC(=O)CCCCCN2C(=O)CC(SC[C@H](NC(=O)[C@H](CCC(=O)O)NC(=O)[C@H](CCC(=O)O)NC(=O)[C@H](CCC(=O)O)NC(=O)CCCCCNC(=O)[C@H]3CC[C@H](CNC(=O)CC[C@H](NC(=O)N[C@@H](CCC(=O)O)C(=O)O)C(=O)O)CC3)C(=O)NCCCCCC(=O)N[C@@H](CCCCNC(=O)CCCCCNC(=O)OCCCOc3cccc4c5n6c(c34)=NC3=NC(=Nc4c7ccccc7c(n4[Si]6(O[Si](C)(C)CCC[N+](CCCS(=O)(=O)[O-])(CCCS(=O)(=O)O)CCCS(=O)(=O)O)O[Si](C)(C)CCC[N+](CCCS(=O)(=O)[O-])(CCCS(=O)(=O)O)CCCS(=O)(=O)O)N=C4N=C(N=5)c5ccccc54)c4ccccc43)C(N)=O)C2=O)C(C)C)cc1)C(C)C (stereo partly shown) [PSMA-1-MMAE-IR700]
fluorescence signal (uptake) in PC3flu cells [1]: no fluorescence signal was observed
time to reach peak uptake in PC3pip tumors ([2]; 100 nmol/kg i.v.): 1 h
fluorescence signal PC3pip versus PC3flu tumor ([2]; 4 h post injection): 3.8 fold
fluorescence signal in PC3flu tumor [2, 6]: 5.2±1.5 counts
fluorescence signal in PC3pip tumor [2, 6]: 19.6±4.4 counts
fluorescence signal PC3pip versus PC3flu tumor ([2]; 48 h post injection): 2.9 fold
fluorescence signal in PC3flu tumors [2, 7]: 3.3±1.3 counts
fluorescence signal in PC3pip tumors [2, 7]: 9.6±2.1 counts
fluorescent signal in PC3pip tumor versus kidneys, liver and other organs ([2]; ex vivo, 48 h post injection): more than 3 fold
apoptosis / necrotic damage in tumors, with PDT [3]: most aggressive necrotic damage and apoptosis
cell killing in PC3flu cells ([4]; 5 nM, with or without light): no effective cell killing
IC50 dark cytotoxicity, PC3flu cells ([4]; 24 h in the dark, no light): no IC50 value was obtained
stability in PBS [5]: stable
